System: human HL60 cells
Assay: SWATH-MS proteomics, differential protein representation, akirin2 KO vs WT HL60 cells
Assay type: cell-based
Conditions: SWATH-MS, akirin2 KO vs WT HL60 cells; over-represented in KO
How it was run: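 WT and akirin2 KO HL60 lysates (150 µg, n=3 biological replicates) were FASP trypsin-digested and desalted. A spectral library was built by IDA from 3 µg digests, then 5 µg per sample went to variable-window SWATH DIA over a 120-min 5–30% acetonitrile gradient. Identifications were accepted at 1% global FDR, with total-area-sum normalization.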

| Molecule | Fold Change | Log (Fold Change) |
| --- | --- | --- |
| Azurocidin (protein, UniProt P20160 27-248, looked up) Azurocidin: IVGGRKARPRQFPFLASIQNQGRHFCGGALIHARFVMTAASCFQSQNPGVSTVVLGAYDLRRRERQSRQTFSISSMSENGYDPQQNLNDLMLLQLDREANLTSSVTILPLPLQNATVEAGTRCQVAGWGSQRSGGRLSRFPRFVNVTVTPEDQCRPNNVCTGVLTRRGGICNGDGGTPLVCEGLAHGVASFSLGPCGRGPDFFTRVALFRDWIDGVLNNPGP | 2.563 | 0.4087 |
| Non-secretory ribonuclease (protein, UniProt P10153 28-161, looked up) Non-secretory ribonuclease: KPPQFTWAQWFETQHINMTSQQCTNAMQVINNYQRRCKNQNTFLLTTFANVVNVCGNPNMTCPSNKTRKNCHHSGSQVPLIHCNLTTPSPQNISNCRYAQTPANMFYIVACDNRDQRRDPPQYPVVPVHLDRII | 2.742 | 0.4381 |
| Cystatin-F (protein, UniProt O76096 20-145, looked up) Cystatin-F: GPSPDTCSQDLNSRVKPGFPKTIKTNDPGVLQAARYSVEKFNNCTNDMFLFKESRITRALVQIVKGLKYMLEVEIGRTTCKKNQHLRLDDCDFQTNHTLKQTLSCYSEVWVVPWLQHFEVPVLRCH | 2.6697 | 0.4265 |
| Lysozyme C (protein, UniProt P61626 19-148, looked up) Lysozyme C: KVFERCELARTLKRLGMDGYRGISLANWMCLAKWESGYNTRATNYNAGDRSTDYGIFQINSRYWCNDGKTPGAVNACHLSCSALLQDNIADAVACAKRVVRDPQGIRAWVAWRNRCQNRDVRQYVQGCGV | 2.204 | 0.3432 |
| OCIA domain-containing protein 1 (protein, UniProt Q9NX40 1-245, looked up) OCIA domain-containing …: MNGRADFREPNAEVPRPIPHIGPDYIPTEEERRVFAECNDESFWFRSVPLAATSMLITQGLISKGILSSHPKYGSIPKLILACIMGYFAGKLSYVKTCQEKFKKLENSPLGEALRSGQARRSSPPGHYYQKSKYDSSVSGQSSFVTSPAADNIEMLPHYEPIPFSSSMNESAPTGITDHIVQGPDPNLEESPKRKNITYEELRNKNRESYEVSLTQKTDPSVRPMHERVPKKEVKVNKYGDTWDE | 1.964 | 0.2932 |
| Serpin B8 (protein, UniProt P50452 1-374, looked up) Serpin B8: MDDLCEANGTFAISLFKILGEEDNSRNVFFSPMSISSALAMVFMGAKGSTAAQMSQALCLYKDGDIHRGFQSLLSEVNRTGTQYLLRTANRLFGEKTCDFLPDFKEYCQKFYQAELEELSFAEDTEECRKHINDWVAEKTEGKISEVLDAGTVDPLTKLVLVNAIYFKGKWNEQFDRKYTRGMLFKTNEEKKTVQMMFKEAKFKMGYADEVHTQVLELPYVEEELSMVILLPDDNTDLAVVEKALTYEKFKAWTNSEKLTKSKVQVFLPRLKLEESYDLEPFLRRLGMIDAFDEAKADFSGMSTEKNVPLSKVAHKCFVEVNEEGTEAAAATAVVRNSRCSRMEPRFCADHPFLFFIRHHKTNCILFCGRFSSP | 2.0658 | 0.3151 |
| Galectin-9 (protein, UniProt O00182 1-355, looked up) Galectin-9: MAFSGSQAPYLSPAVPFSGTIQGGLQDGLQITVNGTVLSSSGTRFAVNFQTGFSGNDIAFHFNPRFEDGGYVVCNTRQNGSWGPEERKTHMPFQKGMPFDLCFLVQSSDFKVMVNGILFVQYFHRVPFHRVDTISVNGSVQLSYISFQNPRTVPVQPAFSTVPFSQPVCFPPRPRGRRQKPPGVWPANPAPITQTVIHTVQSAPGQMFSTPAIPPMMYPHPAYPMPFITTILGGLYPSKSILLSGTVLPSAQRFHINLCSGNHIAFHLNPRFDENAVVRNTQIDNSWGSEERSLPRKMPFVRGQSFSVWILCEAHCLKVAVDGQHLFEYYHRLRNLPTINRLEVGGDIQLTHVQT | 1.857 | 0.2687 |
| Intraflagellar transport protein 25 homolog (protein, UniProt Q9Y547 1-144, looked up) Intraflagellar transport …: MRKIDLCLSSEGSEVILATSSDEKHPPENIIDGNPETFWTTTGMFPQEFIICFHKHVRIERLVIQSYFVQTLKIEKSTSKEPVDFEQWIEKDLVHTEGQLQNEEIVAHDGSATYLRFIIVSAFDHFASVHSVSAEGTVVSNLSS | 2.042 | 0.31 |
| Spartin (protein, UniProt Q8N0X7 1-666, looked up) Spartin: MEQEPQNGEPAEIKIIREAYKKAFLFVNKGLNTDELGQKEEAKNYYKQGIGHLLRGISISSKESEHTGPGWESARQMQQKMKETLQNVRTRLEILEKGLATSLQNDLQEVPKLYPEFPPKDMCEKLPEPQSFSSAPQHAEVNGNTSTPSAGAVAAPASLSLPSQSCPAEAPPAYTPQAAEGHYTVSYGTDSGEFSSVGEEFYRNHSQPPPLETLGLDADELILIPNGVQIFFVNPAGEVSAPSYPGYLRIVRFLDNSLDTVLNRPPGFLQVCDWLYPLVPDRSPVLKCTAGAYMFPDTMLQAAGCFVGVVLSSELPEDDRELFEDLLRQMSDLRLQANWNRAEEENEFQIPGRTRPSSDQLKEASGTDVKQLDQGNKDVRHKGKRGKRAKDTSSEEVNLSHIVPCEPVPEEKPKELPEWSEKVAHNILSGASWVSWGLVKGAEITGKAIQKGASKLRERIQPEEKPVEVSPAVTKGLYIAKQATGGAAKVSQFLVDGVCTVANCVGKELAPHVKKHGSKLVPESLKKDKDGKSPLDGAMVVAASSVQGFSTVWQGLECAAKCIVNNVSAETVQTVRYKYGYNAGEATHHAVDSAVNVGVTAYNINNIGIKAMVKKTATQTGHTLLEDYQIVDNSQRENQEGAANVNVRGEKDEQTKEVKEAKKKDK | 2.789 | 0.4455 |
| Copper transport protein ATOX1 (protein, UniProt O00244 1-68, looked up) Copper transport protein ATOX1: MPKHEFSVDMTCGGCAEAVSRVLNKLGGVKYDIDLPNKKVCIESEHSMDTLLATLKKTGKTVSYLGLE | 1.845 | 0.266 |
| PML-RARA-regulated adapter molecule 1 (protein, UniProt Q96QH2 1-670, looked up) PML-RARA-regulated adapter …: MAHHLPAAMESHQDFRSIKAKFQASQPEPSDLPKKPPKPEFGKLKKFSQPELSEHPKKAPLPEFGAVSLKPPPPEVTDLPKKPPPPEVTDLPKKPPPPEVTDLPKKPPPPEVTDLPKKPSKLELSDLSKKFPQLGATPFPRKPLQPEVGEAPLKASLPEPGAPARKPLQPDELSHPARPPSEPKSGAFPRKLWQPEAGEATPRSPQPELSTFPKKPAQPEFNVYPKKPPQPQVGGLPKKSVPQPEFSEAAQTPLWKPQSSEPKRDSSAFPKKASQPPLSDFPKKPPQPELGDLTRTSSEPEVSVLPKRPRPAEFKALSKKPPQPELGGLPRTSSEPEFNSLPRKLLQPERRGPPRKFSQPEPSAVLKRHPQPEFFGDLPRKPPLPSSASESSLPAAVAGFSSRHPLSPGFGAAGTPRWRSGGLVHSGGARPGLRPSHPPRRRPLPPASSLGHPPAKPPLPPGPVDMQSFRRPSAASIDLRRTRSAAGLHFQDRQPEDIPQVPDEIYELYDDVEPRDDSSPSPKGRDEAPSVQQAARRPPQDPALRKEKDPQPQQLPPMDPKLLKQLRKAEKAEREFRKKFKFEGEIVVHTKMMIDPNAKTRRGGGKHLGIRRGEILEVIEFTSNEEMLCRDPKGKYGYVPRTALLPLETEVYDDVDFCDPLENQPLPLGR | 2.265 | 0.355 |
| Alpha-2-HS-glycoprotein (protein, UniProt P02765 19-300; P02765 341-367, looked up) Alpha-2-HS-glycoprotein chain … 1: APHGPGLIYRQPNCDDPETEEAALVAIDYINQNLPWGYKHTLNQIDEVKVWPQQPSGELFEIEIDTLETTCHVLDPTPVARCSVRQLKEHAVEGDCDFQLLKLDGKFSVVYAKCDSSPDSAEDVRKVCQDCPLLAPLNDTRVVHAAKAALAAFNAQNNGSNFQLEEISRAQLVPLPPSTYVEFTVSGTDCVAKEATEAAKCNLLAEKQYGFCKATLSEKLGGAEVAVTCMVFQTQPVSSQPQPEGANEAVPTPVVDPDAPPSPPLGAPGLPPAGSPPDSHVL Alpha-2-HS-glycoprotein chain … 2: TVVQPSVGAAAGPVVPPCPGRIRHFKV | 2.248 | 0.3517 |
| UDP-N-acetylglucosamine--peptide N-acetylglucosaminyltransferase 110 kDa subunit (protein, UniProt O15294 2-1046, looked up) UDP-N-acetylglucosamine--pepti …: ASSVGNVADSTEPTKRMLSFQGLAELAHREYQAGDFEAAERHCMQLWRQEPDNTGVLLLLSSIHFQCRRLDRSAHFSTLAIKQNPLLAEAYSNLGNVYKERGQLQEAIEHYRHALRLKPDFIDGYINLAAALVAAGDMEGAVQAYVSALQYNPDLYCVRSDLGNLLKALGRLEEAKACYLKAIETQPNFAVAWSNLGCVFNAQGEIWLAIHHFEKAVTLDPNFLDAYINLGNVLKEARIFDRAVAAYLRALSLSPNHAVVHGNLACVYYEQGLIDLAIDTYRRAIELQPHFPDAYCNLANALKEKGSVAEAEDCYNTALRLCPTHADSLNNLANIKREQGNIEEAVRLYRKALEVFPEFAAAHSNLASVLQQQGKLQEALMHYKEAIRISPTFADAYSNMGNTLKEMQDVQGALQCYTRAIQINPAFADAHSNLASIHKDSGNIPEAIASYRTALKLKPDFPDAYCNLAHCLQIVCDWTDYDERMKKLVSIVADQLEKNRLPSVHPHHSMLYPLSHGFRKAIAERHGNLCLDKINVLHKPPYEHPKDLKLSDGRLRVGYVSSDFGNHPTSHLMQSIPGMHNPDKFEVFCYALSPDDGTNFRVKVMAEANHFIDLSQIPCNGKAADRIHQDGIHILVNMNGYTKGARNELFALRPAPIQAMWLGYPGTSGALFMDYIITDQETSPAEVAEQYSEKLAYMPHTFFIGDHANMFPHLKKKAVIDFKSNGHIYDNRIVLNGIDLKAFLDSLPDVKIVKMKCPDGGDNADSSNTALNMPVIPMNTIAEAVIEMINRGQIQITINGFSISNGLATTQINNKAATGEEVPRTIIVTTRSQYGLPEDAIVYCNFNQLYKIDPSTLQMWANILKRVPNSVLWLLRFPAVGEPNIQQYAQNMGLPQNRIIFSPVAPKEEHVRRGQLADVCLDTPLCNGHTTGMDVLWAGTPMVTMPGETLASRVAASQLTCLGCLELIAKNRQEYEDIAVKLGTDLEYLKKVRGKVWKQRISSPLFNTKQYTMELERLYLQMWEHYAAGNKPDHMIKPVEVTESA | 2.047 | 0.3112 |
| Perilipin-3 (protein, UniProt O60664 2-434, looked up) Perilipin-3: SADGAEADGSTQVTVEEPVQQPSVVDRVASMPLISSTCDMVSAAYASTKESYPHIKTVCDAAEKGVRTLTAAAVSGAQPILSKLEPQIASASEYAHRGLDKLEENLPILQQPTEKVLADTKELVSSKVSGAQEMVSSAKDTVATQLSEAVDATRGAVQSGVDKTKSVVTGGVQSVMGSRLGQMVLSGVDTVLGKSEEWADNHLPLTDAELARIATSLDGFDVASVQQQRQEQSYFVRLGSLSERLRQHAYEHSLGKLRATKQRAQEALLQLSQVLSLMETVKQGVDQKLVEGQEKLHQMWLSWNQKQLQGPEKEPPKPEQVESRALTMFRDIAQQLQATCTSLGSSIQGLPTNVKDQVQQARRQVEDLQATFSSIHSFQDLSSSILAQSRERVASAREALDHMVEYVAQNTPVTWLVGPFAPGITEKAPEEKK | 1.9528 | 0.2907 |
